These results are taken from patent US20200362021A1 (PHANES THERAPEUTICS, published 2020).

No end group written: not given here. *: point of attachment. Biotin = O=C1N[C@H]2[C@H](CS[C@H]2CCCCC(=O)*)N1

Experiment [1] deals with T1, apelin-13-biotin (…-biotin) (C-terminal biotin).
T1 construct: also called APL13-Biotin
As to the kind of experiment: SPR (Biacore), apelin-13-biotin on streptavidin chip. As to the method:
(§1) Anti-apelin mAbs at four different concentrations (12.5 nM, 25 nM, 50 nM and 100 nM) were captured on the chip surface. The on- and off-rate for antibody-antigen binding were measured, curve fitted and calculated.

Experiment [2] addresses T2, apelin peptide 1-5 (QRPRL).
T2 peptide: QRPRL
Briefly: competition ELISA, captured mAb, peptide competes with apelin-13-biotin, A405.

Experiment [3] has as its target T3, apelin 17 (competition peptide 1-17, KFRRQRPRLSHKGPMPF).
T3 peptide: KFRRQRPRLSHKGPMPF
The experiment is described as above.

The target in experiment [4] is T4, apelin peptide 1-6 (QRPRLS).
T4 peptide: QRPRLS
The experiment is described as above.

Experiment [5] has as its target T5, apelin peptide 1-11 (QRPRLSHKGPM).
T5 peptide: QRPRLSHKGPM
Described as above.

Experiment [6] has as its target T6, apelin peptide 1-8 (QRPRLSHK).
T6 peptide: QRPRLSHK
The experiment is described as above.

Experiment [7] deals with T7, apelin peptide 1-10 (QRPRLSHKGP).
T7 peptide: QRPRLSHKGP
Described as above.

Experiment [8] deals with T8, apelin peptide 1-9 (QRPRLSHKG).
T8 peptide: QRPRLSHKG
Described as above.

For experiment [9], the target named is T9, apelin peptide 2-13 (RPRLSHKGPMPF).
T9 peptide: RPRLSHKGPMPF
Described as above.

For experiment [10], the target named is T10, apelin peptide 1-7 (QRPRLSH).
T10 peptide: QRPRLSH
The description is as above.

In experiment [11] the target is T11, apelin peptide 1-12 (QRPRLSHKGPMP).
T11 peptide: QRPRLSHKGPMP
The description is as above.

The target of experiment [12] is T12, 1-4.
T12 construct: also called apelin peptide 1-4 (QRPR)
T12 peptide: QRPR
The experiment is described as above.

The target in experiment [13] is T13, pyr-apelin-13-biotin (pE-RPRLSHKGPMPF-biotin) (N-terminal pyroglutamate (pE); C-terminal biotin).
T13 construct: also called pyrAPL13-Biotin
T13 peptide: ERPRLSHKGPMPF
As to the kind of experiment: SPR (Biacore), pyr-apelin-13-biotin on streptavidin chip. As to the method:
as §1

Experiment [14] addresses T14, alanine scanning peptide 1A (ARPRL).
T14 peptide: ARPRL
As to the kind of experiment: competition ELISA, captured mAb, peptide competes with apelin-13-biotin, A405. The method, then:
(§2) Each peptide or control sample was assayed in duplicate for a given mAb.

In experiment [15] the target is T15, alanine scanning peptide 4A (QRPAL).
T15 peptide: QRPAL
The experiment is described as above. As to the method: as §2

Experiment [16] deals with T16, alanine scanning peptide 5A (QRPRA).
T16 peptide: QRPRA
The description is as above. As to the method: as §2

Experiment [17] has as its target T17, alanine scanning peptide 3A (QRARL).
T17 peptide: QRARL
The experiment is described as above. The method, then: as §2

The target of experiment [18] is T18, alanine scanning peptide 2A (QAPRL).
T18 peptide: QAPRL
The experiment is described as above. The method, then:
as §2

Experiment [19] deals with T19, Biotin-APL17.
T19 peptide: Biotin-KFRRQRPRLSHKGPMPF
As to the kind of experiment: ELISA, peptide on neutravidin plate, mAb 200 ng/ml, A405.

Experiment [20] deals with T20, APL17-Biotin.
T20 peptide: KFRRQRPRLSHKGPMPF-biotin
The experiment is described as above.

B1: anti-apelin mAb C7 (antibody, V domains shown)
VH: QSLEESGGRLAKPDETLTLTCTVSGIDLNSHAMDWVRQAPGKGLEWIGVIAPDTRTYYATWARGRFTISKTSSTSVELKMTSLTTEDTATYFCAAYPIEPGANIWGPGTLVTVSS
VL: DPVLTQTPSPVSAPVGGTVTIGCQASESVDYNNQLSWYQQKPGQAPKRLMYYVSTLDSGVPSRFKGSGSGTQFTLTISDLECDDAATYYCQGGYPYNIYPFGGGTEVVVK
notes: recombinant rabbit IgG made in HEK293 cells
For B1, the Kd in experiment [1] was 3.14 pM; in experiment [13] it was 0.326 pM. For the same molecule, the binding result was “binds” in experiment [2]; “no binding (tested: peptide concentration not stated)” in experiment [3]; “binds” in experiment [4]; “binds” in experiment [5]; “binds” in experiment [6]; “binds” in experiment [7]. Moreover, the binding result in experiment [8] is “binds”; in [9], “no binding (tested: peptide concentration not stated)”; in [10], “binds”; in experiment [11], “binds”; in experiment [12], “no binding (tested: peptide concentration not stated)”; in [14], “no binding (tested: peptide concentration not stated)”. For the same molecule, the binding result in [15] is on record as “no binding (tested: peptide concentration not stated)”; in experiment [16], “no binding (tested: peptide concentration not stated)”; in experiment [17] it was “no binding (tested: peptide concentration not stated)”; in experiment [18] it was “no binding (tested: peptide concentration not stated)”; in [19] it was “no binding (tested: 200 ng/ml)”; in [20], “no binding (tested: 200 ng/ml)”.
